Data on 23 molecules can be found in publication PMC6555819, “Comprehensive study of nuclear receptor DNA binding provides a revised framework for understanding receptor specificity”.

B1: NRC3_wobSeed39_DR1_G10A_o1 (dsDNA)
DNA 1: GCCGAACTAAGTCAAAGGACAGTGAAAGGCGACGTAGCGATTGACAGCGTAGAATGAAGG
DNA 2: CCTTCATTCTACGCTGTCAATCGCTACGTCGCCTTTCACTGTCCTTTGACTTAGTTCGGC
B2: NRC3_wobSeed44_DR1_G10A_o1 (dsDNA)
DNA 1: GCTGAATGAAGTTAAAGATCAGGGAACGTGGCGTCGGCGATTGACAGCGTAGAATGAAGG
DNA 2: CCTTCATTCTACGCTGTCAATCGCCGACGCCACGTTCCCTGATCTTTAACTTCATTCAGC
B3: NRC3_wobSeed44_DR1_G10C_o1 (dsDNA)
DNA 1: GCTGAATGACGTTAAAGATCAGGGAACGTGGCGTCGGCGATTGACAGCGTAGAATGAAGG
DNA 2: CCTTCATTCTACGCTGTCAATCGCCGACGCCACGTTCCCTGATCTTTAACGTCATTCAGC
B4: NRC3_wobSeed82_DR3_A9C_o1 (dsDNA)
DNA 1: GCATCGAACGGTCGACGAGGTGAGTATACACCGTTTGCGATTGACAGCGTAGAATGAAGG
DNA 2: CCTTCATTCTACGCTGTCAATCGCAAACGGTGTATACTCACCTCGTCGACCGTTCGATGC
B5: NRC3_random_hg19_365_o1 (dsDNA)
DNA 1: GCAGTAGACACAGGGTTTCACCGTGTTGGCCAGGATGCGATTGACAGCGTAGAATGAAGG
DNA 2: CCTTCATTCTACGCTGTCAATCGCATCCTGGCCAACACGGTGAAACCCTGTGTCTACTGC
B6: NRC3_wobSeed17_DR0_G16C_o1 (dsDNA)
DNA 1: GCATATGTAGGTTAGCGTCATTCAGAAAGTAGGGAAGCGATTGACAGCGTAGAATGAAGG
DNA 2: CCTTCATTCTACGCTGTCAATCGCTTCCCTACTTTCTGAATGACGCTAACCTACATATGC
B7: NRC3_random_hg19_240_o1 (dsDNA)
DNA 1: GCGACCATCTCCACACTGCACGATGATGAGATCCTGGCGATTGACAGCGTAGAATGAAGG
DNA 2: CCTTCATTCTACGCTGTCAATCGCCAGGATCTCATCATCGTGCAGTGTGGAGATGGTCGC
B8: NRC3_wobSeed27_DR1_G17T_o1 (dsDNA)
DNA 1: GCACTCGGAGGACAAATGTCAGAGCTACGCCAGTGAGCGATTGACAGCGTAGAATGAAGG
DNA 2: CCTTCATTCTACGCTGTCAATCGCTCACTGGCGTAGCTCTGACATTTGTCCTCCGAGTGC
B9: NRC3_wobSeed30_DR1_C20G_o1 (dsDNA)
DNA 1: GCACTAGCAGGCCAAGGGTGACTCAAGATTAGTCCGGCGATTGACAGCGTAGAATGAAGG
DNA 2: CCTTCATTCTACGCTGTCAATCGCCGGACTAATCTTGAGTCACCCTTGGCCTGCTAGTGC
B10: NRC3_wobSeed69_DR2_G10A_o1 (dsDNA)
DNA 1: GCAGTCAAAATTCACTAGGTAACGTAAGATTCAGCTGCGATTGACAGCGTAGAATGAAGG
DNA 2: CCTTCATTCTACGCTGTCAATCGCAGCTGAATCTTACGTTACCTAGTGAATTTTGACTGC
B11: NRC3_random_hg19_89_o1 (dsDNA)
DNA 1: GCCAAGATGAATCAGAAGCATGCCATCCGAATTCCAGCGATTGACAGCGTAGAATGAAGG
DNA 2: CCTTCATTCTACGCTGTCAATCGCTGGAATTCGGATGGCATGCTTCTGATTCATCTTGGC
B12: NRC3_random_hg19_236_o1 (dsDNA)
DNA 1: GCGCCTAGCACTTGTGTTGACCATTCATTCAGTGCTGCGATTGACAGCGTAGAATGAAGG
DNA 2: CCTTCATTCTACGCTGTCAATCGCAGCACTGAATGAATGGTCAACACAAGTGCTAGGCGC
B13: NRC3_wobSeed124_DR5_C24T_o1 (dsDNA)
DNA 1: GCCCTACTGGGCCATTCAGAGGTTATTGATCATATGGCGATTGACAGCGTAGAATGAAGG
DNA 2: CCTTCATTCTACGCTGTCAATCGCCATATGATCAATAACCTCTGAATGGCCCAGTAGGGC
B14: NRC3_wobSeed100_DR4_A24C_o1 (dsDNA)
DNA 1: GCCCTACTGGGCCACGAAAGGTCCTTGATTCAGTGAGCGATTGACAGCGTAGAATGAAGG
DNA 2: CCTTCATTCTACGCTGTCAATCGCTCACTGAATCAAGGACCTTTCGTGGCCCAGTAGGGC
B15: NRC3_wobSeed58_DR2_A9T_o1 (dsDNA)
DNA 1: GCATCGAATGGTCGTGAGGTGAGTATACAGAAAGGCGCGATTGACAGCGTAGAATGAAGG
DNA 2: CCTTCATTCTACGCTGTCAATCGCGCCTTTCTGTATACTCACCTCACGACCATTCGATGC
B16: NRC3_wobSeed76_DR3_C22A_o1 (dsDNA)
DNA 1: GCCCTACTGGGCCAAAAAGGTAATTGATGCCGATAAGCGATTGACAGCGTAGAATGAAGG
DNA 2: CCTTCATTCTACGCTGTCAATCGCTTATCGGCATCAATTACCTTTTTGGCCCAGTAGGGC
B17: NRC3_random_hg19_2_o1 (dsDNA)
DNA 1: GCGTAACAAGAACAAGGCCATACTTTCATGCATCTAGCGATTGACAGCGTAGAATGAAGG
DNA 2: CCTTCATTCTACGCTGTCAATCGCTAGATGCATGAAAGTATGGCCTTGTTCTTGTTACGC
B18: NRC3_random_hg19_301_o1 (dsDNA)
DNA 1: GCGAGAACAGACTAACACACACACACACACACACACGCGATTGACAGCGTAGAATGAAGG
DNA 2: CCTTCATTCTACGCTGTCAATCGCGTGTGTGTGTGTGTGTGTGTGTTAGTCTGTTCTCGC
B19: NRC3_wobSeed34_DR1_G10A_o1 (dsDNA)
DNA 1: GCATCGAAAAGTCGAAGGTGAGTATACCCACCCGAAGCGATTGACAGCGTAGAATGAAGG
DNA 2: CCTTCATTCTACGCTGTCAATCGCTTCGGGTGGGTATACTCACCTTCGACTTTTCGATGC
B20: NRC3_random_hg19_498_o1 (dsDNA)
DNA 1: GCGACCACAGGTATAGTGTGCTGGACTATGTTCCAGGCGATTGACAGCGTAGAATGAAGG
DNA 2: CCTTCATTCTACGCTGTCAATCGCCTGGAACATAGTCCAGCACACTATACCTGTGGTCGC
B21: NRC3_wobSeed18_DR0_G9C_o1 (dsDNA)
DNA 1: GCGATACACGGTCAAGGCCAGAGTACGCGTATTGATGCGATTGACAGCGTAGAATGAAGG
DNA 2: CCTTCATTCTACGCTGTCAATCGCATCAATACGCGTACTCTGGCCTTGACCGTGTATCGC
B22: NRC3_wobSeed90_DR3_T12A_o1 (dsDNA)
DNA 1: GCCATACAGGGACAGCTAGGCCAGAGTAGGGACGGCGCGATTGACAGCGTAGAATGAAGG
DNA 2: CCTTCATTCTACGCTGTCAATCGCGCCGTCCCTACTCTGGCCTAGCTGTCCCTGTATGGC
B23: NRC3_random_hg19_292_o1 (dsDNA)
DNA 1: GCCAAGACCCTAAGGAACCACTGTGTGGGATGTCAGGCGATTGACAGCGTAGAATGAAGG
DNA 2: CCTTCATTCTACGCTGTCAATCGCCTGACATCCCACACAGTGGTTCCTTAGGGTCTTGGC

The target of this data set is RXRa (Homo sapiens, UniProt P19793). Description: no ligand; PBM; 180 nM; PBS pH 7.4, 2% milk, 0.02% Triton X-100, 1 mM DTT, BSA, 0.4 mg/ml salmon testes DNA. The following applies: tags: His cleaved; chain copies: 2; label: surface-attached array probe.
Chain of RXRa (P19793 whole entry): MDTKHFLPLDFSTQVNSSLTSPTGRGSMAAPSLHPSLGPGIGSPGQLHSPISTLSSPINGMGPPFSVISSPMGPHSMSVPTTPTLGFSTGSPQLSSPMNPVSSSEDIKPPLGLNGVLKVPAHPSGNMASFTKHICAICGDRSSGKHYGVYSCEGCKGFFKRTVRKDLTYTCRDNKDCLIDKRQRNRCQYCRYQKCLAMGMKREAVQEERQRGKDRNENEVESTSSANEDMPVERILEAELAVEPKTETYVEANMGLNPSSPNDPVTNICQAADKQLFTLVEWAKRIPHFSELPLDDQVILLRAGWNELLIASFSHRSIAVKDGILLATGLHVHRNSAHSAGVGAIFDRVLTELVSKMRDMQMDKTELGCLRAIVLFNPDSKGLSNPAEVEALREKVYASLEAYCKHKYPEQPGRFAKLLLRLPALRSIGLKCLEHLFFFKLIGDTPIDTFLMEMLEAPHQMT
On to B1, for which the binding signal is 0.22 PBM z-score against 500 random probes.

As to B2, the binding signal was 0.44 PBM z-score against 500 random probes. On to B3, for which the binding signal was 0.4 PBM z-score against 500 random probes. As for B4, the binding signal is 0.44 PBM z-score against 500 random probes. B5: the binding signal is 0.03 PBM z-score against 500 random probes.

With B6, the binding signal is 0.46 PBM z-score against 500 random probes. The value for B7 was 0.1 PBM z-score against 500 random probes; that for B8 was 0.08 PBM z-score against 500 random probes; that for B9 was 0.36 PBM z-score against 500 random probes. As for B10, the binding signal was 0.46 PBM z-score against 500 random probes. Take B11: the binding signal was -0 PBM z-score against 500 random probes. B12: the binding signal was -0.35 PBM z-score against 500 random probes. Regarding B13, the binding signal is 0.48 PBM z-score against 500 random probes. The value for B14 was 0.26 PBM z-score against 500 random probes; that for B15 was 0.34 PBM z-score against 500 random probes. For the molecule B16, the binding signal was 0.01 PBM z-score against 500 random probes. As to B17, the binding signal is 0.08 PBM z-score against 500 random probes. Turning to B18, the binding signal is 0.4 PBM z-score against 500 random probes. The same measure for B19: 0.45 PBM z-score against 500 random probes; for B20: -0.31 PBM z-score against 500 random probes. Consider B21, for which the binding signal was 0.39 PBM z-score against 500 random probes. As for B22, the binding signal was 0.2 PBM z-score against 500 random probes. Turning to B23, the binding signal is 0.44 PBM z-score against 500 random probes.
